{"source": "paper PMC4021855", "about": "(Nature chemical biology, 2013)", "key": {"[1]": {"molecular_target": "human full-length KRS WT, His-tagged (human, UniProt Q15046 1-597)", "sequence (Q15046 whole entry)": "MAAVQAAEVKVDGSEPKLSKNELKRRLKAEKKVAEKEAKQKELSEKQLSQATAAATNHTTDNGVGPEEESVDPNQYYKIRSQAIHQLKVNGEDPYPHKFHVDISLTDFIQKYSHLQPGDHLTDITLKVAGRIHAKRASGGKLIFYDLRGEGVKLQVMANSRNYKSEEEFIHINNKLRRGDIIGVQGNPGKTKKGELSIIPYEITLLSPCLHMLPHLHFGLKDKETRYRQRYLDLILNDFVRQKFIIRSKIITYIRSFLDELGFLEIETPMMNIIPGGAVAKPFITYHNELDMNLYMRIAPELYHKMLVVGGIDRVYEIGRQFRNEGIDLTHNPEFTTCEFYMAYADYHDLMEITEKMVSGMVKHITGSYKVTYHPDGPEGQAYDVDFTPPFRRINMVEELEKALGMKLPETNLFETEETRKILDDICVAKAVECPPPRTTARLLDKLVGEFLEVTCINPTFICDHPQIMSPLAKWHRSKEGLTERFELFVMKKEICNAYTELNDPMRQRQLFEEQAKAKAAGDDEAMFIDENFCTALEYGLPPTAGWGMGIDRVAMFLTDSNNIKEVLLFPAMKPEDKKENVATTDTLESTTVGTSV", "experiment": "AlphaScreen or HTRF"}, "[2]": {"molecular_target": "human full-length KRS T52D, His-tagged (human, UniProt Q15046 1-597, T52D)", "sequence (Q15046 whole entry T52D)": "as the sequence (Q15046 whole entry) above, with T52D counted along it", "experiment": "AlphaScreen or HTRF"}}, "note": "Ends that are not written are not given here.", "data": [{"binder": "MPMYQVKPYHGGGAPLRVELPTCMYRLPNVHGRSYGPAPGAGHVQEES-{TRX} (domain or fragment, human, UniProt Q13155 1-48, looked up, also: biotin via EZ-Link-NHS-PEG12-Biotin, places not given here)", "note": "[AIMP2_(1–48)-TRX-Biotin]", "values": [{"measurement": "binding result", "setting": "[1]", "value": "binds"}, {"measurement": "Kd", "setting": "[2]", "value": 333, "unit": "nM"}]}]}
